# According to patent US20200199241A1 (Chugai, published 2020):
# Where a chain is given by its changes, count along the chain named.
# B1: IgG1-F776 (antibody)
# heavy: QVQLQESGPGLVKPSETLSLTCAVSGHSISHDHAWSWVRQPPGEGLEWIGFISYSGITNYNPSLQGRVTISRDNSKNTLYLQMNSLRAEDTAVYYCARSLARTTAMDYWGEGTLVTVSSASTKGPSVFPLAPSSKSTSGGTAALGCLVKDYFPEPVTVSWNSGALTSGVHTFPAVLQSSGLYSLSSVVTVPSSSLGTQTYICNVNHKPSNTKVDKKVEPKSCDKTHTCPPCPAPELLGGPSVFLFPPKPKDTLYISRTPEVTCVVVDVSHEDPEVKFNWYVDGVEVHNAKTKPREEQYNSTYRVVSVLTVLHQDWLNGKEYKCKVSNKALPAPIEKTISKAAGQPREPQVYTLPPSRDELTKNQVSLTCLVKGFYPSDIAVEWESNGQPENNYKTTPPVLDSDGSFFLYSKLTVDKSRWQQGNVFSCSVMHEALHYHYTQKSLSLSP
# light: not shown
# notes: EU numbering; copies: 2 + 2
# B2: IgG1-F798 (antibody)
# heavy: B1 heavy with N317Q, A342K
# light: not shown
# notes: EU numbering; copies: 2 + 2
# B3: IgG1-F823 (antibody)
# heavy: B1 heavy with P240D, T252Y, W315F, A342K
# light: not shown
# notes: EU numbering; copies: 2 + 2
# B4: IgG1-F843 (antibody)
# heavy: B1 heavy with P240D, T252V, R257Q, A342K
# light: not shown
# notes: EU numbering; copies: 2 + 2
# B5: IgG1-F790 (antibody)
# heavy: B1 heavy with N317E, A342K
# light: not shown
# notes: EU numbering; copies: 2 + 2
# B6: IgG1-F822 (antibody)
# heavy: B1 heavy with P240D, T252Y, W315Y, A342K
# light: not shown
# notes: EU numbering; copies: 2 + 2
# B7: IgG1-F813 (antibody)
# heavy: B1 heavy with A342K, S426E
# light: not shown
# notes: EU numbering; copies: 2 + 2
# B8: IgG1-F800 (antibody)
# heavy: B1 heavy with N317S, A342K
# light: not shown
# notes: EU numbering; copies: 2 + 2
# B9: IgG1-F841 (antibody)
# heavy: B1 heavy with P240D, T252V, R257N, A342K
# light: not shown
# notes: EU numbering; copies: 2 + 2
# B10: IgG1-F821 (antibody)
# heavy: B1 heavy with L237R, S241K, A342K
# light: not shown
# notes: copies: 2 + 2
# B11: IgG1-F816 (antibody)
# heavy: B1 heavy with P240D, T252V, T309P, A342K
# light: not shown
# notes: EU numbering; copies: 2 + 2
# B12: IgG1-F786 (antibody)
# heavy: B1 heavy with S256T, N288E, T309Q, Q313A, A342K
# light: not shown
# notes: EU numbering; copies: 2 + 2
# B13: IgG1-F828 (antibody)
# heavy: B1 heavy with P240D, T252V, I255V, A342K
# light: not shown
# notes: EU numbering; copies: 2 + 2
# B14: IgG1-F788 (antibody)
# heavy: B1 heavy with N317A, A342K
# light: not shown
# notes: EU numbering; copies: 2 + 2
# B15: IgG1-F784 (antibody)
# heavy: B1 heavy with L311A, A342K
# light: not shown
# notes: EU numbering; copies: 2 + 2
# B16: IgG1-F834 (antibody)
# heavy: B1 heavy with P240D, T252V, R257F, A342K
# light: not shown
# notes: EU numbering; copies: 2 + 2
# B17: IgG1-F787 (antibody)
# heavy: B1 heavy with S256T, T309Q, L311E, Q313A, A342K
# light: not shown
# notes: EU numbering; copies: 2 + 2
# B18: IgG1-F779 (antibody)
# heavy: B1 heavy with A342K, N363A
# light: not shown
# notes: EU numbering; copies: 2 + 2
# B19: IgG1-F820 (antibody)
# heavy: B1 heavy with L237K, S241K, A342K
# light: not shown
# notes: EU numbering; copies: 2 + 2
# B20: IgG1-F812 (antibody)
# heavy: B1 heavy with A342K, E384V
# light: not shown
# notes: EU numbering; copies: 2 + 2
# B21: IgG1-F806 (antibody)
# heavy: B1 heavy with A342K, N386A
# light: not shown
# notes: EU numbering; copies: 2 + 2
# B22: IgG1-F839 (antibody)
# heavy: B1 heavy with P240D, T252V, R257L, A342K
# light: not shown
# notes: EU numbering; copies: 2 + 2
# B23: IgG1-F837 (antibody)
# heavy: B1 heavy with P240D, T252V, R257I, A342K
# light: not shown
# notes: EU numbering; copies: 2 + 2
# B24: IgG1-F807 (antibody)
# heavy: B1 heavy with A342K, N391A
# light: not shown
# notes: EU numbering; copies: 2 + 2
# B25: IgG1-F789 (antibody)
# heavy: B1 heavy with N317D, A342K
# light: not shown
# notes: EU numbering; copies: 2 + 2
# B26: IgG1-F803 (antibody)
# heavy: B1 heavy with N317W, A342K
# light: not shown
# notes: EU numbering; copies: 2 + 2
# B27: IgG1-F808 (antibody)
# heavy: B1 heavy with A342K, N391A, N392A
# light: not shown
# notes: EU numbering; copies: 2 + 2
# B28: IgG1-F801 (antibody)
# heavy: B1 heavy with N317T, A342K
# light: not shown
# notes: EU numbering; copies: 2 + 2
# B29: IgG1-F785 (antibody)
# heavy: B1 heavy with L311H, A342K
# light: not shown
# notes: EU numbering; copies: 2 + 2
# B30: IgG1-F783 (antibody)
# heavy: B1 heavy with A342K, D415A
# light: not shown
# notes: EU numbering; copies: 2 + 2
# B31: IgG1-F819 (antibody)
# heavy: B1 heavy with P240D, N288E, A342K
# light: not shown
# notes: EU numbering; copies: 2 + 2
# B32: IgG1-F844 (antibody)
# heavy: B1 heavy with P240D, T252V, R257S, A342K
# light: not shown
# notes: EU numbering; copies: 2 + 2
# B33: IgG1-F781 (antibody)
# heavy: B1 heavy with A342K, S377A
# light: not shown
# notes: EU numbering; copies: 2 + 2
# B34: IgG1-F793 (antibody)
# heavy: B1 heavy with N317I, A342K
# light: not shown
# notes: EU numbering; copies: 2 + 2
# B35: IgG1-F792 (antibody)
# heavy: B1 heavy with N317G, A342K
# light: not shown
# notes: EU numbering; copies: 2 + 2
# B36: IgG1-F836 (antibody)
# heavy: B1 heavy with P240D, T252V, R257H, A342K
# light: not shown
# notes: EU numbering; copies: 2 + 2
# B37: IgG1-F777 (antibody)
# heavy: B1 heavy with A342K, E347A
# light: not shown
# notes: EU numbering
# B38: IgG1-F832 (antibody)
# heavy: B1 heavy with P240D, T252V, R257D, A342K
# light: not shown
# notes: EU numbering; copies: 2 + 2
# B39: IgG1-F848 (antibody)
# heavy: B1 heavy with P240D, T252V, R257Y, A342K
# light: not shown
# notes: EU numbering; copies: 2 + 2
# B40: IgG1-F850 (antibody)
# heavy: B1 heavy with D282E, A342K
# light: not shown
# notes: EU numbering; copies: 2 + 2
# B41: IgG1-F804 (antibody)
# heavy: B1 heavy with N317Y, A342K
# light: not shown
# notes: EU numbering; copies: 2 + 2
# B42: IgG1-F817 (antibody)
# heavy: B1 heavy with P240D, T252V, T309Q, Q313A, A342K
# light: not shown
# notes: EU numbering; copies: 2 + 2
# B43: IgG1-F795 (antibody)
# heavy: B1 heavy with N317L, A342K
# light: not shown
# notes: EU numbering; copies: 2 + 2
# B44: IgG1-F809 (antibody)
# heavy: B1 heavy with S256T, T258S, A342K
# light: not shown
# notes: EU numbering; copies: 2 + 2
# B45: IgG1-F799 (antibody)
# heavy: B1 heavy with N317R, A342K
# light: not shown
# notes: EU numbering; copies: 2 + 2
# B46: IgG1-F838 (antibody)
# heavy: B1 heavy with P240D, T252V, R257K, A342K
# light: not shown
# notes: EU numbering; copies: 2 + 2
# B47: IgG1-F849 (antibody)
# heavy: B1 heavy with D282A, A342K
# light: not shown
# notes: EU numbering; copies: 2 + 2
# B48: IgG1-F810 (antibody)
# heavy: B1 heavy with A342K, A380V
# light: not shown
# notes: EU numbering; copies: 2 + 2
# B49: IgG1-F831 (antibody)
# heavy: B1 heavy with P240D, T252V, R257A, A342K
# light: not shown
# notes: EU numbering; copies: 2 + 2
# B50: IgG1-F840 (antibody)
# heavy: B1 heavy with P240D, T252V, R257M, A342K
# light: not shown
# notes: EU numbering; copies: 2 + 2
# B51: IgG1-F814 (antibody)
# heavy: B1 heavy with A342K, Y438I
# light: not shown
# notes: EU numbering; copies: 2 + 2
# B52: IgG1-F833 (antibody)
# heavy: B1 heavy with P240D, T252V, R257E, A342K
# light: not shown
# notes: EU numbering; copies: 2 + 2
# B53: IgG1-F805 (antibody)
# heavy: B1 heavy with N327A, A342K
# light: not shown
# notes: EU numbering; copies: 2 + 2
# B54: IgG1-F794 (antibody)
# heavy: B1 heavy with N317K, A342K
# light: not shown
# notes: EU numbering; copies: 2 + 2
# B55: IgG1-F780 (antibody)
# heavy: B1 heavy with A342K, Q364A
# light: not shown
# notes: EU numbering; copies: 2 + 2
# B56: IgG1-F815 (antibody)
# heavy: B1 heavy with A342K, T439R
# light: not shown
# notes: EU numbering; copies: 2 + 2
# B57: IgG1-F847 (antibody)
# heavy: B1 heavy with P240D, T252V, R257W, A342K
# light: not shown
# notes: EU numbering; copies: 2 + 2
# B58: IgG1-F782 (antibody)
# heavy: B1 heavy with A342K, Y393A
# light: not shown
# notes: EU numbering; copies: 2 + 2
# B59: IgG1-F796 (antibody)
# heavy: B1 heavy with N317M, A342K
# light: not shown
# notes: EU numbering; copies: 2 + 2
# B60: IgG1-F811 (antibody)
# heavy: B1 heavy with A342K, E382S
# light: not shown
# notes: EU numbering; copies: 2 + 2
# Target: T1, soluble human FcRn complexed with β2-microglobulin (human, UniProt P61769 21-119, limits assumed)
# T1 construct: also called hFcRn
# Experiment: Biacore SPR, pH 7.0;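 further: test antibodies captured on a Protein L chip with human FcRn flowed over as analyte, KD obtained as the ratio of dissociation to association rate constants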
# T1 sequence (chain, as listed by the source limits assumed, chain 1 of 2): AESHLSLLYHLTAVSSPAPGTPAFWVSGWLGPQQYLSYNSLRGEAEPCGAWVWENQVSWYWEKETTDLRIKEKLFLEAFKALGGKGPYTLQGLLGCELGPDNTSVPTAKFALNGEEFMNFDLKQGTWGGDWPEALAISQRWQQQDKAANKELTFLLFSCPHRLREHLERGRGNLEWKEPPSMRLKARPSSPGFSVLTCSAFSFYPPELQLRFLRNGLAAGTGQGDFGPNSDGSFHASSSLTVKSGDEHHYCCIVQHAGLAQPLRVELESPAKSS
# T1 sequence (P61769 21-119 limits assumed, chain 2 of 2): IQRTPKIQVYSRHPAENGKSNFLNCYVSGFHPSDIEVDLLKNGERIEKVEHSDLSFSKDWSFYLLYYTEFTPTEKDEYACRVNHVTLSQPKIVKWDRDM
row,Binder,Kd [nM]
1,B1,390
2,B2,350
3,B3,1100
4,B4,660
5,B5,270
6,B6,1100
7,B7,280
8,B8,380
9,B9,1100
10,B10,310
11,B11,360
12,B12,28
13,B13,2500
14,B14,410
15,B15,500
16,B16,810
17,B17,88
18,B18,390
19,B19,340
20,B20,270

row,Binder,Kd [nM]
1,B21,310
2,B22,340
3,B23,560
4,B24,320
5,B25,150
6,B26,360
7,B27,320
8,B28,440
9,B29,740
10,B30,400
11,B31,140
12,B32,1300
13,B33,370
14,B34,330
15,B35,440
16,B36,500
17,B37,390
18,B38,2600
19,B39,830
20,B40,290

row,Binder,Kd [nM]
1,B41,400
2,B42,98
3,B43,310
4,B44,220
5,B45,410
6,B46,430
7,B47,330
8,B48,220
9,B49,1600
10,B50,420
11,B51,120
12,B52,800
13,B53,300
14,B54,410
15,B55,390
16,B56,550
17,B57,340
18,B58,350
19,B59,340
20,B60,490
